Measured values from FireProtDB (doi:10.1006/jmbi.1993.1336).

Conditions: Aspergillus oryzae (strain ATCC 42149 / RIB 40), GdnHCl, Fluorescence, reversible: yes, whole UniProt chain shown
[1] = pH 5, 25 °C, Sodium acetate 0.1 M

B1: Guanyl-specific ribonuclease T1 wild type, P00651 (protein)
chain: MMYSKLLTLTTLLLPTALALPSLVERACDYTCGSNCYSSSDVSTAQAAGYQLHEDGETVGSNSYPHKYNNYEGFDFSVSSPYYEWPILSSGDVYSGGSPGADRVVFNENNQLAGVITHTGASGNNFVECT
denaturant m value [1]: 2.75 kcal/mol/M | denaturant midpoint (higher = more stable) [1]: 3.64 M | unfolding free energy [1]: 10 kcal/mol | denaturant m value (pH 8, 10 °C, Tris 0.1 M): 2.63 kcal/mol/M | denaturant midpoint (higher = more stable) (pH 8, 10 °C, Tris 0.1 M): 3.21 M | unfolding free energy (pH 8, 10 °C, Tris 0.1 M): 8.44 kcal/mol | denaturant m value (pH 8, 25 °C, Tris 0.1 M): 2.46 kcal/mol/M | denaturant midpoint (higher = more stable) (pH 8, 25 °C, Tris 0.1 M): 2.4 M | unfolding free energy (pH 8, 25 °C, Tris 0.1 M): 5.91 kcal/mol
